In the supplement of paper PMC12042874 one finds amyloid nucleation score data, which are given here for 141 substances.

± gives the uncertainty stated by the source.

This data set can be described thus: amyloid nucleation score (Sup35N fusion, yeast selection) (log enrichment); library NNK2; higher = more nucleation; inactive = no reads after selection. In a few lines: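 After 24 hours of induction with 100 μM copper sulfate, psi-negative yeast expressing peptides of 20 random codons fused to Sup35N were grown for 7 days at 30°C on medium lacking adenine and uracil. Input and output plasmid inserts were sequenced with Illumina, and sequences with under 100 input reads were discarded. Scores for nucleation are the DiMSum log enrichment of output over input reads, centred on the mode score of non-aggregating sequences.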

Regarding NATLSSFYSLGNEMHSGHSV, the amyloid nucleation score was -0.209 ± 0.48. As for SAFVSVCVSDRDRMGCYYSS, the entry is “inactive”; as for TDSAFLCHIAWTPFTVH, 0.866 ± 0.48; as for CAVRF, 0.498 ± 0.64. Under SMVTFDYV stands “inactive”; under NIVGHAHRLFNRMRCLRLYQ, -0.439 ± 0.32; under GTYRNIRVWCRFRWVFENGC, 0.11 ± 0.74. Consider IRNNPCFQSGDVGY, for which the amyloid nucleation score was -0.088 ± 1.1. YKACRH yielded an amyloid nucleation score of 3.89 ± 0.055. Consider AISSRLILLTPRAKSFVPSD, for which the amyloid nucleation score is -0.247 ± 0.65. Substance QIKRQGHLESPSRQR returned an amyloid nucleation score of 0.128 ± 0.37. DGSDREPKVSALWLHVRRTA yielded an amyloid nucleation score of 2.17 ± 0.13. As to GATLGVADRPGKSAGLPWTD, the amyloid nucleation score amounted to 0.998 ± 0.15. Turning to IGVWMGCYTSLHCSIKCLEI, the amyloid nucleation score turned out to be 6.36 ± 0.086.

In turn, LRRVFQISERRNKLWLYEEC had an amyloid nucleation score of 0.6 ± 0.74. As for YTWVYPF, the figure is -1.01 ± 0.33.

For FSQYCMALLIVNQEFWACCW, the amyloid nucleation score was -0.944 ± 0.45. Under NIFFVRCYFNVLYNGALCHS stands 7.025 ± 0.043; under CLKSISTRNR, -0.932 ± 0.76; under ARLAPRSLPCKWSPVAEKQR, -0.098 ± 0.79. As to NMYSCQYVCGTALDDDWVGC, the amyloid nucleation score came out at 7.813 ± 0.059. The substance WTSPGSLPKRALCGRVERYA gave an amyloid nucleation score of -0.53 ± 0.29. As for EWSFLMNFSIMYRHFRVLAL, the figure is -1.35 ± 0.78. WFTAVVLNS registered an amyloid nucleation score of 0.333 ± 0.25. On to CNHIRSKVKVVVCTGHCAVF, for which the amyloid nucleation score came to 4.62 ± 0.11. Take GEDTFYSISCYVQMLL: the amyloid nucleation score was 1.49 ± 0.08. Substance WDIRVVVSVRCNMQVYLFVC registered an amyloid nucleation score of 0.581 ± 0.51. Consider HFVRVSFGCCLVTLSMRVDR, for which the amyloid nucleation score was 0.669 ± 0.26. In turn, LDFALNCNSRFSLTQDS came in with an amyloid nucleation score of 2.83 ± 0.13.

Consider NGIKFRGMVVTP, for which the amyloid nucleation score came to 0.294 ± 0.65. As for VTGNKEVMKIRCWVAHEESY, the figure is 0.436 ± 0.49; as for MVLDIFAS, 1.19 ± 0.44; as for FSSCSDRLGHGLNSLTKHLI, -0.737 ± 0.39.

In turn, WMVIHSGADCQCL had an amyloid nucleation score of 0.605 ± 0.36. VHHLDNYLQAN returned an amyloid nucleation score of -0.659 ± 0.34. In turn, MSAYR came in with an amyloid nucleation score of -0.018 ± 0.65. For the substance QICNARFLLLLRTQALEQCA, the amyloid nucleation score was 0.499 ± 0.56. As for DLLGIEPTTVCFYFDTDIRH, the amyloid nucleation score turned out to be 2.9 ± 0.07.

Turning to SNALQDGRVQLGSFEHRIVR, the amyloid nucleation score is 0.649 ± 0.5. On to LSLLFH, for which the amyloid nucleation score entry is “inactive”. VLLGPSSYRLTYTMGRRRDG gave an amyloid nucleation score of 0.685 ± 0.66. In the case of LTICS, the amyloid nucleation score is -1.03 ± 0.78. In the case of QRLYFMIMSQPAFGTFRGIY, the amyloid nucleation score is -0.95 ± 1.1.

In turn, RMGSYDVNRNSFFKCSGRVS registered an amyloid nucleation score of -0.864 ± 0.78.

Take VRPCRP: the amyloid nucleation score was found to be 1.49 ± 0.55. For the substance SDDWIDYRCNPGRGSKEAMA, the amyloid nucleation score came to 4.6 ± 0.098. The substance DLTHWSANSTCSSCVEFHLR came in with an amyloid nucleation score of 3.99 ± 0.086.

Substance LSLMHAQHSTMLDNSMTM yielded an amyloid nucleation score of 0.621 ± 0.56.

Substance YLNWCSSSRNYLSMLYWPMV registered an amyloid nucleation score of -0.148 ± 0.5. For the substance ANAKIYGNMEALETGMRL, the amyloid nucleation score is 0.553 ± 0.57.

The substance YMALCLTAL gave an amyloid nucleation score of 0.367 ± 0.47. GLNYPAIWEARLKG registered an amyloid nucleation score of 0.703 ± 0.29. For SQLFTVLSKS, the amyloid nucleation score is -0.062 ± 0.35. Substance NMKGTPVYLSFYDCSRPVGW gave an amyloid nucleation score of 4.04 ± 0.11. Substance STLVIVCFYICRHFSTYRVR displayed an amyloid nucleation score of -0.832 ± 0.32.

In the case of DENFHAEGWRCFVYPFY, the amyloid nucleation score is -0.373 ± 0.27. IFVFSWRIRMWLLKSLTCG showed an amyloid nucleation score of -0.904 ± 0.78. QHVFKVVSVALIMRCYDCGI registered an amyloid nucleation score of 1.64 ± 0.11. As for WLQAHGIVYLNICRNSGFVH, the figure is 5.12 ± 0.058; as for VDIGENLEFCIVLSQ, -0.19 ± 0.55. The substance MLTTMCDELQLLVGPLGDRV displayed an amyloid nucleation score of 0.253 ± 0.3. YYRIWYRVLIPSP: the amyloid nucleation score was -0.43 ± 0.29. As for PNDLLHLSRLIQDMWMINFN, the entry is “inactive”; as for AKVVHTVWACIAS, -0.943 ± 0.78; as for RMSWVGSEHRLGVNSFNVLG, 0.201 ± 0.34.

TFIFWGTAELVNNNLGLRC gave an amyloid nucleation score of -0.479 ± 0.48. Consider SVWTFLTCI, for which the amyloid nucleation score turned out to be 0.906 ± 0.46.

On to CFLDGYWPGGELMKIGDYAL, for which the amyloid nucleation score stood at 0.248 ± 0.28. IVCPKSGNAVVYGLMTMNNK: the amyloid nucleation score is 0.329 ± 0.62. In the case of LRNLS, the amyloid nucleation score was -0.919 ± 1. The substance TGLCHPIGLPDRFRYIIRSL gave an amyloid nucleation score of -0.789 ± 0.55. As for FGLGVCNWIYGCKMDAFNSG, the figure is 6.223 ± 0.039; as for FLRLGLAITLISV, “inactive”; as for SSSRGRVCP, 0.012 ± 0.63. TSCFLLIQGIFGGLGITGMP came in with an amyloid nucleation score of 2.97 ± 0.099. Consider FIVWVV, for which the amyloid nucleation score was -0.916 ± 1.1. The substance IACLNKTFLFSCVNIYGLMT yielded an amyloid nucleation score of 5.736 ± 0.037. In the case of GICVFCNSYWL, the amyloid nucleation score is 8.843 ± 0.055.

For the substance DSIGVVFEVKTGKARASGVV, the amyloid nucleation score came out at 0.171 ± 0.49. For the substance CRFRGLRYNRWDQNDVFAGV, the amyloid nucleation score was determined as 0.349 ± 0.44.

LTCLLVRCSFVRCCVERPWS yielded an amyloid nucleation score of -0.732 ± 0.54.

With VLPEWSLF, the amyloid nucleation score entry was “inactive”. CINRVRG: the amyloid nucleation score was -0.398 ± 0.76. VDTHSILASCLRVTKGVTDK showed an amyloid nucleation score of 0.138 ± 1.1.

In turn, ISRQDRVQWWSYSSTRLA displayed an amyloid nucleation score of 4.94 ± 0.077.

Regarding IMLAVYPIIEGFIVDNMHRI, the amyloid nucleation score is -1.25 ± 1.1. Turning to LYWFMD, the amyloid nucleation score is -1.16 ± 1.1. GHSGTVSTQRVCPSSSLWYR came in with an amyloid nucleation score of 0.462 ± 0.4. Take DDERYDVPLWSFGVRYYISG: the amyloid nucleation score was -0.384 ± 0.54. RLMSCMFFNADITAPYWSRY: the amyloid nucleation score was determined as 6.235 ± 0.036. In the case of GTLELMHETWVPSLYPVRMQ, the amyloid nucleation score worked out at 0.571 ± 0.4. The substance VSAKNIMSSAAER had an amyloid nucleation score of 0.451 ± 0.35. CAGYMRRHFSAAVTWTWAEG had an amyloid nucleation score of 1.22 ± 0.69. As for KKRQCGMVGLNLVGQYLHSF, the figure is -1.3 ± 0.62. Substance FLFSFKDPKHMDITCKAVYA yielded an amyloid nucleation score of -0.433 ± 0.78. Under YWLPRCKLVFV stands 0.017 ± 0.25. As for LLWNVGIVYSHMQVFVMRRY, the figure is 1.23 ± 0.13. Under CVLMAMNFRCLNSTETTLLG stands “inactive”; under CTPDLLSVNFDVVVLQW, -0.58 ± 0.55. Turning to RFGLISANLLSLDY, the amyloid nucleation score was -0.938 ± 1.1.

LMSSLFPLSSACY: the amyloid nucleation score was -0.545 ± 0.38. For the substance TSVQFCLLICLFRSTGNCAR, the amyloid nucleation score is 2.1 ± 0.1.

As for RSNRYGRDWNGVGTKWLFHD, the amyloid nucleation score is -0.395 ± 0.45.

Substance VMALSIMTMGTSVGFRDNGG showed an amyloid nucleation score of 4.38 ± 0.071.

In turn, VKWTVHYNAVAKRIRLMIVY gave an amyloid nucleation score of 0.437 ± 0.8. With FYINTYQVSQGFIA, the amyloid nucleation score entry is “inactive”.

Consider YHHIV, for which the amyloid nucleation score entry is “inactive”.

The substance LWLMVCMMYM returned an amyloid nucleation score of 2.09 ± 0.15.

For NRSAYLGRMVSI, the amyloid nucleation score was found to be 0.164 ± 0.44.

Turning to FLRLHE, the amyloid nucleation score result is “inactive”. The substance VLAAT had an amyloid nucleation score of -0.815 ± 0.55. With ISEDIIWC, the amyloid nucleation score worked out at 1.24 ± 0.25.

YGVYGHFKTLGNLTNRDVVS registered an amyloid nucleation score of -1.36 ± 0.75. Substance YRCIMVATMWGPRVELGR returned an amyloid nucleation score of 0.522 ± 0.39.

On to FVIFVMNHLWFFWIVWEDRE, for which the amyloid nucleation score is -1.26 ± 1.1.

Substance VVVSVCSPLK returned an amyloid nucleation score of 0.258 ± 0.46.

The substance FSPKKFK had an amyloid nucleation score of -0.532 ± 1. The substance ITTFLCSGFCIINAVRNFLS displayed an amyloid nucleation score of 2.77 ± 0.12. As for LDWGCILVQ, the amyloid nucleation score is 0.012 ± 0.43. On to NFRRLVMGSRNYSLFCGDKE, for which the amyloid nucleation score entry was “inactive”. Under YRFMTLVQHSYRCICLRLNA stands -0.183 ± 0.33; under FHVEHGAWWCIGDRFVVPGF, 0.541 ± 0.2.

In turn, FCRNIKDYLDYCHRGVGPKK came in with an amyloid nucleation score of 0.176 ± 0.76. Substance LPFLPSCVVEKQVEYVWIRG gave an amyloid nucleation score of 0.332 ± 0.25. Take FYNNPDGDRVDVRSCCYYMW: the amyloid nucleation score came to 7.19 ± 0.073. In turn, RYPVESCVHSFLESRVRDQG showed an amyloid nucleation score of 0.881 ± 0.45. As for LWSVYYMSVIIFPFGKHPKQ, the figure is 7.149 ± 0.056. Substance CLRYGISRWLRLFRINNVVE showed an amyloid nucleation score of 0.046 ± 0.34. Substance MSCSSIRLFQDSIRLCRTSR yielded an amyloid nucleation score of -0.02 ± 0.32.

For the substance RRFKSDLL, the amyloid nucleation score was 1.57 ± 0.44. With NFYVVDQCSYRSGRLNIKWL, the amyloid nucleation score was found to be 4.13 ± 0.079.

The substance PISLRGLYCVKDLMDKPM registered an amyloid nucleation score of 0.113 ± 0.61.

Substance FTFYR displayed an amyloid nucleation score of 1.08 ± 0.41. As to YMRMKW, the amyloid nucleation score turned out to be 3.46 ± 0.079. As for KFDLSCNPNSPGSLRYTLNN, the entry is “inactive”. For the substance PVNWGQGITTKALWYMTLRF, the amyloid nucleation score was -0.417 ± 1.1.

Take LDSLCG: the amyloid nucleation score turned out to be 0.546 ± 0.57.

Consider LSKSVLKNTWGVYVI, for which the amyloid nucleation score was -0.358 ± 0.79. On to FSLQQVNFMTVSRGKCSLKL, for which the amyloid nucleation score result was “inactive”. With GQACRMYTVSVFVILNLGYQ, the amyloid nucleation score came to 2.53 ± 0.076. ARDCYEDDHKSKSARTVEHT returned an amyloid nucleation score of 0.232 ± 0.31.
